Where “and” joins values, the source holds several entries; their conditions need not be identical. Equal entries are not always repeated.
Legend:
[1] = target: bone morphogenetic protein 6 (BMP6) (UniProt P22004)
ERFE CLR*ΔC1Q (human) [2] = target: ERFE CLR*ΔC1Q (human) (UniProt Q4G0M1); assay: non-reducing SDS-PAGE
ERFE CLR*ΔC1Q (human) [3] = target: ERFE CLR*ΔC1Q (human) (UniProt Q4G0M1); assay: AUC
[4] = target: ERFE CLR* (center PGP of the collagen-like repeat mutated to SSS) (human) (UniProt Q4G0M1); assay: non-reducing SDS-PAGE
[5] = target: ERFE CLR* (center PGP of the collagen-like repeat mutated to SSS) (human) (UniProt Q4G0M1); assay: AUC
[6] = target: bone morphogenetic protein 6 (BMP6) (UniProt P22004); remark: listed apart in the source
[7] = target: T1, bone morphogenetic protein 6 (BMP6) (UniProt P22004 375-513); assay: cell-based or functional assay
T1 sequence: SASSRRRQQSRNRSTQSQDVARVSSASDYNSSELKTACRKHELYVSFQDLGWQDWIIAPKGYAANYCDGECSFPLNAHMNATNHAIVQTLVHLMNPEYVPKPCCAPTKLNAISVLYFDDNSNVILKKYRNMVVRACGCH

AUC [8] = target: the molecule itself; assay: AUC
[9] = target: T1, bone morphogenetic protein 6 (BMP6); assay: cell-based or functional assay; remark: listed apart in the source
[10] = target: bone morphogenetic protein 2 (BMP2) (UniProt P12643 283-396); assay: cell-based or functional assay
Chain of bone morphogenetic protein 2 (BMP2) (P12643 283-396): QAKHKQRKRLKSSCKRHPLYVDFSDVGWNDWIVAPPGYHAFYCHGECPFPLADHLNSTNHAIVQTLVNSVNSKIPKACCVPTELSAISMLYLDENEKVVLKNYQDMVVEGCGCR

[11] = target: T2, bone morphogenetic protein 7 (BMP7) (UniProt P18075 293-431); assay: cell-based or functional assay
T2 sequence: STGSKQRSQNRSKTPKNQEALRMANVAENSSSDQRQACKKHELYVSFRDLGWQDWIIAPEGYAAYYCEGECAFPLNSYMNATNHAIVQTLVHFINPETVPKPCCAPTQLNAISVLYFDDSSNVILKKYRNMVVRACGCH

[12] = target: T3, growth differentiation factor 5 (GDF5) (UniProt P43026 382-501); assay: cell-based or functional assay
T3 sequence: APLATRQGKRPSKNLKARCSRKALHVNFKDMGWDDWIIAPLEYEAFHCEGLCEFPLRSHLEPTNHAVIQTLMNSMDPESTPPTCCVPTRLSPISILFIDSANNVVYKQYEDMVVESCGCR

non-reducing SDS-PAGE = target: the molecule itself; assay: non-reducing SDS-PAGE
AUC [13] = target: the molecule itself; assay: AUC; remark: listed apart in the source

Molecule: ERFE CLR*ΔC1Q (from UniProt Q4G0M1 44-207) (domain or fragment)
- IC50 of inhibition of 2.5nM BMP6, luciferase reporter in BRITER cells [1]: 27 nM
- stoichiometry N (ERFE CLR*ΔC1Q (human) [2]): 2
- percent of the protein as dimer (ERFE CLR*ΔC1Q (human) [3]): 38%
- percent of the protein as monomer (ERFE CLR*ΔC1Q (human) [3]): 61%
- stoichiometry N (ERFE CLR*ΔC1Q (human) [3]): 2

Molecule: ERFE CLR* (center PGP of the collagen-like repeat mutated to SSS) (from UniProt Q4G0M1 44-354) (natural protein)
- IC50 of inhibition of 2.5nM BMP6, luciferase reporter in BRITER cells [1]: 6.1 nM
- stoichiometry N [4]: 2
- stoichiometry N [5]: 3

B1: ERFE D90A (natural protein)
chain: PPPGNELPRGPGESRAGPAARPPEPTAERAHSVDPRDAWMLFVRQSAKGVNGKKRSRGKAKKLKFGLPGPPGPPGPQGPPGPIIPPEALLKEFQLLLKGAVRQRERAEPEPCTCGPAGPVAASLAPVSATAGEDDDDVVGDVLALLAAPLAPGPRAPRVEAAFLCRLRRDALVERRALHELGVYYLPDAEGAFRRGPGLNLTSGQYRAPVAGFYALAATLHVALGEPPRRGPPRPRDHLRLLICIQSRCQRNASLEAIMGLESSSELFTISVNGVLYLQMGQWTSVFLDNASGCSLTVRSGSHFSAVLLGV
- IC50 of inhibition of BMP6, luciferase reporter in BRITER cells [6]: 13 nM

B2: ERFE Cys* (Cys155, 157 and 208 mutated to serines) (natural protein)
chain: PPPGNELPRGPGESRAGPAARPPEPTAERAHSVDPRDAWMLFVRQSDKGVNGKKRSRGKAKKLKFGLPGPPGPPGPQGPPGPIIPPEALLKEFQLLLKGAVRQRERAEPEPSTSGPAGPVAASLAPVSATAGEDDDDVVGDVLALLAAPLAPGPRAPRVEAAFLSRLRRDALVERRALHELGVYYLPDAEGAFRRGPGLNLTSGQYRAPVAGFYALAATLHVALGEPPRRGPPRPRDHLRLLICIQSRCQRNASLEAIMGLESSSELFTISVNGVLYLQMGQWTSVFLDNASGCSLTVRSGSHFSAVLLGV
- IC50 of inhibition of 2.5nM BMP6, luciferase reporter in BRITER cells [7]: 8.7 nM
- stoichiometry N (AUC [8]): 3

B3: erythroferrone (ERFE), wild type, N-terminally flag-tagged hERFE residues 44-354 (natural protein)
chain: PPPGNELPRGPGESRAGPAARPPEPTAERAHSVDPRDAWMLFVRQSDKGVNGKKRSRGKAKKLKFGLPGPPGPPGPQGPPGPIIPPEALLKEFQLLLKGAVRQRERAEPEPCTCGPAGPVAASLAPVSATAGEDDDDVVGDVLALLAAPLAPGPRAPRVEAAFLCRLRRDALVERRALHELGVYYLPDAEGAFRRGPGLNLTSGQYRAPVAGFYALAATLHVALGEPPRRGPPRPRDHLRLLICIQSRCQRNASLEAIMGLESSSELFTISVNGVLYLQMGQWTSVFLDNASGCSLTVRSGSHFSAVLLGV
- IC50 of ERFE inhibition of 2.5nM BMP6, BRE-luciferase reporter in BRITER cells [9]: 5.2 nM
- IC50 of ERFE inhibition of 2.5nM BMP2, BRE-luciferase reporter in BRITER cells [10]: 170 nM
- IC50 of ERFE inhibition of 2.5nM BMP7, BRE-luciferase reporter in BRITER cells [11]: 8.9 nM
- IC50 of ERFE inhibition of 2.5nM GDF5, BRE-luciferase reporter in BRITER cells [12]: 130 nM
- stoichiometry N (AUC [8]): 3 and 6

B4: ERFE N94A (natural protein)
chain: PPPGNELPRGPGESRAGPAARPPEPTAERAHSVDPRDAWMLFVRQSDKGVAGKKRSRGKAKKLKFGLPGPPGPPGPQGPPGPIIPPEALLKEFQLLLKGAVRQRERAEPEPCTCGPAGPVAASLAPVSATAGEDDDDVVGDVLALLAAPLAPGPRAPRVEAAFLCRLRRDALVERRALHELGVYYLPDAEGAFRRGPGLNLTSGQYRAPVAGFYALAATLHVALGEPPRRGPPRPRDHLRLLICIQSRCQRNASLEAIMGLESSSELFTISVNGVLYLQMGQWTSVFLDNASGCSLTVRSGSHFSAVLLGV
- IC50 of inhibition of BMP6, luciferase reporter in BRITER cells [6]: 21 nM

B5: ERFE ΔC1Q (stop codon at C208, entire C1Q domain removed) (domain or fragment)
chain: PPPGNELPRGPGESRAGPAARPPEPTAERAHSVDPRDAWMLFVRQSDKGVNGKKRSRGKAKKLKFGLPGPPGPPGPQGPPGPIIPPEALLKEFQLLLKGAVRQRERAEPEPCTCGPAGPVAASLAPVSATAGEDDDDVVGDVLALLAAPLAPGPRAPRVEAAFL
- IC50 of inhibition of 2.5nM BMP6, luciferase reporter in BRITER cells [7]: 7.8 nM
- stoichiometry N (non-reducing SDS-PAGE): 2
- stoichiometry N (AUC [13]): 3

B6: ERFE Cys*ΔC1Q (domain or fragment)
chain: PPPGNELPRGPGESRAGPAARPPEPTAERAHSVDPRDAWMLFVRQSDKGVNGKKRSRGKAKKLKFGLPGPPGPPGPQGPPGPIIPPEALLKEFQLLLKGAVRQRERAEPEPSTSGPAGPVAASLAPVSATAGEDDDDVVGDVLALLAAPLAPGPRAPRVEAAFL
- IC50 of inhibition of 2.5nM BMP6, luciferase reporter in BRITER cells [7]: 97 nM
- stoichiometry N (AUC [13]): 3

— publication PMC10491252 (bioRxiv, 2023)
